Data taken from PMC10574006, “Two Different Isocitrate Dehydrogenases from Pseudomonas aeruginosa: Enzymology and Coenzyme-Evolutionary Implications” (International Journal of Molecular Sciences, 2023).

T1: PaIDH2 (Pseudomonas aeruginosa, UniProt Q9I0L4)
T1 construct: gene idh; full length, 741 aa, 6xHis-tag, pET-28b(+) NdeI/XhoI, E. coli Rosetta (DE3), 81 kDa subunit, oligomer depends on salt (176-320 kDa)
T1 sequence (Q9I0L4 1-741): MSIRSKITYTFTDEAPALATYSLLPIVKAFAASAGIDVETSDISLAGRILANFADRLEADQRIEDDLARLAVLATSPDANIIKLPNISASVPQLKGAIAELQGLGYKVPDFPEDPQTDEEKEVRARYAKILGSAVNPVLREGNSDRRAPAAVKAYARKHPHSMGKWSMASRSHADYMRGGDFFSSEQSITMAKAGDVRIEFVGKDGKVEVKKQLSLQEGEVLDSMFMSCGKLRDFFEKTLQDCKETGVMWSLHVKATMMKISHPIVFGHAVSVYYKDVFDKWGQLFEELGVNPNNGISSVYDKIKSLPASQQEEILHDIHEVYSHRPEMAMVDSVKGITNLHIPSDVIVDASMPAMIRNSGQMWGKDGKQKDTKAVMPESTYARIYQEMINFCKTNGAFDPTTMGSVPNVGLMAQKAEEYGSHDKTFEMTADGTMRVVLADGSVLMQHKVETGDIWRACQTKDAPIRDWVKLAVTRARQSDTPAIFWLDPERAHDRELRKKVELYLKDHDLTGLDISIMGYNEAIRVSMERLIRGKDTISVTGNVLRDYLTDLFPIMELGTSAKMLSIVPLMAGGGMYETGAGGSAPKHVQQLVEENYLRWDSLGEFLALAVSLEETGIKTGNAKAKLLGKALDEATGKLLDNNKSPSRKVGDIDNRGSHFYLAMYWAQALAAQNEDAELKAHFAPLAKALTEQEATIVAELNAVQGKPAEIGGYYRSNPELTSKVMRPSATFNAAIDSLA

T2: PaIDH1 (Pseudomonas aeruginosa, UniProt Q9I0L5)
T2 construct: gene icd; full length, 418 aa, 6xHis-tag, pET-28b(+) NdeI/XhoI, E. coli Rosetta (DE3), 45 kDa subunit, homodimer
T2 sequence (Q9I0L5 1-418): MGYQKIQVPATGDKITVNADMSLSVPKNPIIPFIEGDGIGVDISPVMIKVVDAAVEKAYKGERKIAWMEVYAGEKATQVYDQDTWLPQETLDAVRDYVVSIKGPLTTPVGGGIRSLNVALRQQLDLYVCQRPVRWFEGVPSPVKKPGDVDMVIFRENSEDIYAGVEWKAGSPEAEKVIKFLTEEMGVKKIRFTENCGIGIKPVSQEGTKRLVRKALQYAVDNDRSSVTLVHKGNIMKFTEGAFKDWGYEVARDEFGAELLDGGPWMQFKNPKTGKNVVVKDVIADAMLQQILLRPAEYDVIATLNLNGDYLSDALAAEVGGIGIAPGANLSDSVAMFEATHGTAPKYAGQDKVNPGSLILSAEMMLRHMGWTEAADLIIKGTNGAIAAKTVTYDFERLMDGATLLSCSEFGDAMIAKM


Key:
[1] = molecular target: T1, PaIDH2; experiment: effect on IDH activity, product formation; assay type: biochemical; conditions: read-out: Relative Activity (%) / PaIDH2
Text: effect on IDH activity, product formation on PaIDH2

[2] = molecular target: T2, PaIDH1; experiment: effect on IDH activity, product formation; assay type: biochemical; conditions: read-out: Relative Activity (%) / PaIDH1
Text: effect on IDH activity, product formation on PaIDH1

[3] = substrate: O=C(O)CC(C(=O)O)C(O)C(=O)O; experiment: purified protein; assay type: biochemical, Pseudomonas aeruginosa; conditions: 500 μM NADP+, 2 mM MnCl2, 50 mM Tris-HCl pH 7.5, 25 °C
[4] = substrate: NC(=O)c1ccc[n+]([C@@H]2O[C@H](COP(=O)(O)OP(=O)(O)OC[C@H]3O[C@@H](n4cnc5c(N)ncnc54)[C@H](OP(=O)(O)O)[C@@H]3O)[C@@H](O)[C@H]2O)c1; experiment: purified protein; assay type: biochemical, Pseudomonas aeruginosa; conditions: 1 mM DL-isocitrate, 2 mM MnCl2, 50 mM Tris-HCl pH 7.5, 25 °C, varied: cofactor

Molecule	activity at 2000 µM [1] [%]	activity at 2000 µM [2] [%]	Km [3] [µM]	kcat [3] [s⁻¹]	kcat/Km [3] [M⁻¹ s⁻¹]	Km [4] [µM]	kcat [4] [s⁻¹]	kcat/Km [4] [M⁻¹ s⁻¹]
Nc1ncnc2c1ncn2[C@@H]1O[C@H](COP(=O)(O)OP(=O)(O)OP(=O)(O)O)[C@@H](O)[C@H]1O [ATP]	75.9 ± 5.92	–	–	–	–	–	–	–
Nc1ncnc2c1ncn2[C@@H]1O[C@H](COP(=O)(O)OP(=O)(O)O)[C@@H](O)[C@H]1O [ADP]	82.7 ± 3.37	81.8 ± 3.55	–	–	–	–	–	–
O=C(O)CC(=O)C(=O)O [OAA]	–	77.5 ± 4.56	–	–	–	–	–	–
O=C(O)CCC(=O)C(=O)O [α-KG]	82.8 ± 5.65	79.5 ± 4.64	–	–	–	–	–	–
PaIDH1 (Pseudomonas aeruginosa PAO1) (protein, full length, 418 aa, 6xHis-tag, pET-28b(+) NdeI/XhoI, E. coli Rosetta (DE3), 45 kDa subunit, homodimer) MGYQKIQVPATGDKITVNADMSLSVPKNPIIPFIEGDGIGVDISPVMIKVVDAAVEKAYKGERKIAWMEVYAGEKATQVYDQDTWLPQETLDAVRDYVVSIKGPLTTPVGGGIRSLNVALRQQLDLYVCQRPVRWFEGVPSPVKKPGDVDMVIFRENSEDIYAGVEWKAGSPEAEKVIKFLTEEMGVKKIRFTENCGIGIKPVSQEGTKRLVRKALQYAVDNDRSSVTLVHKGNIMKFTEGAFKDWGYEVARDEFGAELLDGGPWMQFKNPKTGKNVVVKDVIADAMLQQILLRPAEYDVIATLNLNGDYLSDALAAEVGGIGIAPGANLSDSVAMFEATHGTAPKYAGQDKVNPGSLILSAEMMLRHMGWTEAADLIIKGTNGAIAAKTVTYDFERLMDGATLLSCSEFGDAMIAKM	–	–	14.41 ± 1.82	29.3 ± 10.9	2.1e+06 ± 930000	20.00 ± 6.29	105 ± 19.9	5.42e+06 ± 970000
PaIDH2 (Pseudomonas aeruginosa PAO1) (protein, full length, 741 aa, 6xHis-tag, pET-28b(+) NdeI/XhoI, E. coli Rosetta (DE3), 81 kDa subunit, oligomer depends on salt (176-320 kDa)) MSIRSKITYTFTDEAPALATYSLLPIVKAFAASAGIDVETSDISLAGRILANFADRLEADQRIEDDLARLAVLATSPDANIIKLPNISASVPQLKGAIAELQGLGYKVPDFPEDPQTDEEKEVRARYAKILGSAVNPVLREGNSDRRAPAAVKAYARKHPHSMGKWSMASRSHADYMRGGDFFSSEQSITMAKAGDVRIEFVGKDGKVEVKKQLSLQEGEVLDSMFMSCGKLRDFFEKTLQDCKETGVMWSLHVKATMMKISHPIVFGHAVSVYYKDVFDKWGQLFEELGVNPNNGISSVYDKIKSLPASQQEEILHDIHEVYSHRPEMAMVDSVKGITNLHIPSDVIVDASMPAMIRNSGQMWGKDGKQKDTKAVMPESTYARIYQEMINFCKTNGAFDPTTMGSVPNVGLMAQKAEEYGSHDKTFEMTADGTMRVVLADGSVLMQHKVETGDIWRACQTKDAPIRDWVKLAVTRARQSDTPAIFWLDPERAHDRELRKKVELYLKDHDLTGLDISIMGYNEAIRVSMERLIRGKDTISVTGNVLRDYLTDLFPIMELGTSAKMLSIVPLMAGGGMYETGAGGSAPKHVQQLVEENYLRWDSLGEFLALAVSLEETGIKTGNAKAKLLGKALDEATGKLLDNNKSPSRKVGDIDNRGSHFYLAMYWAQALAAQNEDAELKAHFAPLAKALTEQEATIVAELNAVQGKPAEIGGYYRSNPELTSKVMRPSATFNAAIDSLA	–	–	23.61 ± 1.21	171 ± 6.77	7.26e+06 ± 130000	30.68 ± 2.73	134 ± 17	4.42e+06 ± 1.13e+06
